Measurements: article PMC2677886 (Nucleic Acids Research, 2009)
Each block holds one binder with its values, some of them ahead of it.

Target: RECQ5–CBD fusion protein (human, UniProt O94762 1-991)
Test: pull-down

RECQ5–CBD fusion protein, sequence (O94762 whole entry, the tested form may be a part): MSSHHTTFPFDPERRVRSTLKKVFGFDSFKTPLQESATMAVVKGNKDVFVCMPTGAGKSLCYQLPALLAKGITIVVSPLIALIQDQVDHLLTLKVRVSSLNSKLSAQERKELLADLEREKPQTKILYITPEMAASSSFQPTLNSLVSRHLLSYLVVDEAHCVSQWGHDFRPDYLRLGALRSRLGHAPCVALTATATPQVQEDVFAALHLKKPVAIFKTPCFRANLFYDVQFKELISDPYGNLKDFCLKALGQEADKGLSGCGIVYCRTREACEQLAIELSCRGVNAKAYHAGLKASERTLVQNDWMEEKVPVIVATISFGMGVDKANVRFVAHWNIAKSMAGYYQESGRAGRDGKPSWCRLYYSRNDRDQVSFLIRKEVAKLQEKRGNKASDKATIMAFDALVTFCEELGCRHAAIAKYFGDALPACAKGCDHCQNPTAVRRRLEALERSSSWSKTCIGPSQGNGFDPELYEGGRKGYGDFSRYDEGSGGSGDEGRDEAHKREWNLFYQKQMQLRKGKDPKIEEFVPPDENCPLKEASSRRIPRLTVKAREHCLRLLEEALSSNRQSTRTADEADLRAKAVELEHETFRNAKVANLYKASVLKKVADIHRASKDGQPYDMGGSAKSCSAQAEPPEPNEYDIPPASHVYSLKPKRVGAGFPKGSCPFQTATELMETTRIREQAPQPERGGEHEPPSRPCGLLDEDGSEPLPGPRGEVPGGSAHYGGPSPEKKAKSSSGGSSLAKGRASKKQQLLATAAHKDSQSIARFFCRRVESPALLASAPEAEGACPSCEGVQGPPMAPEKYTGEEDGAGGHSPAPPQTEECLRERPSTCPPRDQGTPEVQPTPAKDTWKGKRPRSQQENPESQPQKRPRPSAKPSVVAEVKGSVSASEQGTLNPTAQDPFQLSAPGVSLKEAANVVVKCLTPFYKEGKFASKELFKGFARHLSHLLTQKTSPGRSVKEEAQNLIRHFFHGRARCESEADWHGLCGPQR

- binding result: binds
B1: (His)6-NBS1, individually purified (natural protein, human, UniProt O60934 1-754, looked up)
chain: MWKLLPAAGPAGGEPYRLLTGVEYVVGRKNCAILIENDQSISRNHAVLTANFSVTNLSQTDEIPVLTLKDNSKYGTFVNEEKMQNGFSRTLKSGDGITFGVFGSKFRIEYEPLVACSSCLDVSGKTALNQAILQLGGFTVNNWTEECTHLVMVSVKVTIKTICALICGRPIVKPEYFTEFLKAVESKKQPPQIESFYPPLDEPSIGSKNVDLSGRQERKQIFKGKTFIFLNAKQHKKLSSAVVFGGGEARLITEENEEEHNFFLAPGTCVVDTGITNSQTLIPDCQKKWIQSIMDMLQRQGLRPIPEAEIGLAVIFMTTKNYCDPQGHPSTGLKTTTPGPSLSQGVSVDEKLMPSAPVNTTTYVADTESEQADTWDLSERPKEIKVSKMEQKFRMLSQDAPTVKESCKTSSNNNSMVSNTLAKMRIPNYQLSPTKLPSINKSKDRASQQQQTNSIRNYFQPSTKKRERDEENQEMSSCKSARIETSCSLLEQTQPATPSLWKNKEQHLSENEPVDTNSDNNLFTDTDLKSIVKNSASKSHAAEKLRSNKKREMDDVAIEDEVLEQLFKDTKPELEIDVKVQKQEEDVNVRKRPRMDIETNDTFSDEAVPESSKISQENEIGKKRELKEDSLWSAKEISNNDKLQDDSEMLPKKLLLTEFRSLVIKNSTSRNPSGINDDYGQLKNFKKFKKVTYPGAGKLPHIIGGSDLIAHHARKNTELEEWLRQEMEVQNQHAKEESLADDLFRYNPYLKRRR

- binding result: binds
B2: (His)6-MRE11, individually purified (natural protein, human, UniProt P49959 1-708, looked up)
chain: MSTADALDDENTFKILVATDIHLGFMEKDAVRGNDTFVTLDEILRLAQENEVDFILLGGDLFHENKPSRKTLHTCLELLRKYCMGDRPVQFEILSDQSVNFGFSKFPWVNYQDGNLNISIPVFSIHGNHDDPTGADALCALDILSCAGFVNHFGRSMSVEKIDISPVLLQKGSTKIALYGLGSIPDERLYRMFVNKKVTMLRPKEDENSWFNLFVIHQNRSKHGSTNFIPEQFLDDFIDLVIWGHEHECKIAPTKNEQQLFYISQPGSSVVTSLSPGEAVKKHVGLLRIKGRKMNMHKIPLHTVRQFFMEDIVLANHPDIFNPDNPKVTQAIQSFCLEKIEEMLENAERERLGNSHQPEKPLVRLRVDYSGGFEPFSVLRFSQKFVDRVANPKDIIHFFRHREQKEKTGEEINFGKLITKPSEGTTLRVEDLVKQYFQTAEKNVQLSLLTERGMGEAVQEFVDKEEKDAIEELVKYQLEKTQRFLKERHIDALEDKIDEEVRRFRETRQKNTNEEDDEVREAMTRARALRSQSEESASAFSADDLMSIDLAEQMANDSDDSISAATNKGRGRGRGRRGGRGQNSASRGGSQRGRADTGLETSTRSRNSKTAVSASRNMSIIDAFKSTRQQPSRNVTTKNYSEVIEVDESDVEEDIFPTTSKTDQRWSSTSSSKIMSQSQVSKGVDFESSEDDDDDPFMNTSSLRRNRR
